The record followed here is patent US20200109188A1.

Numbering of substitutions follows the chain as printed. A value given as a limit tells only on which side of the number the result lay.

The labels stand for the following.
B1: Antibody 5 (antibody, V domains shown)
VH: QVQLQQSGPGLVKPSQTLSLTCAISGDRVSSNSAVWNWIRQSPSRGLEWLGRTYYRSKWYYDYAESVKSRIVIDPDTSKNQVSLQLNSVTPEDSAIYYCARGGHITVFGLNIDAYDIWGQGAMVTVSS
VL: DIQMTQSPSSLSASVGDRVTISCRAQSLSSYLHWYQQKPGQPPKLLIYAATTLQSGVPSRFSGSGSGTDFTLTISTFQAEDVATYYCQQSRTFGQGTKVEIK
B2: Antibody 6 (antibody, V domains shown)
VH: B1 VH with V107E
VL: B1 VL
B3: Antibody 8 (antibody, V domains shown)
VH: QVQLQQSGPGLVKPSQTLSLTCVISGDTVSSNRATWNWMRQSPLRGLEWLGRTYYRSKWYNDYAVSVKSRVVINPDTSKNQVSLQLNTVTPDDSGVYFCARGGHITVFGVNIDAFDIWGLGTKVTVSS
VL: DIQMTQSPSSLSASVGDRVTISCRASQRLNSYLHWYQQTPGQAPKLLIYATSTLQSGVSPRFSGSGSGTDFTLTISSLQPEDVATYYCQLSRTFGHGTKVEIK
B4: Antibody 10 (antibody, V domains shown)
VH: QVQLQQSGPGLVKPSQTLSLTCAISGDSVSSNSATWNWIRQSPSRGLEWLGRTYYRSKWYNDYADFLKRRITINPDTSNNEVSLRLTSVTPDDTALYYCARGGHITVFGVNIDAFDVWGQGTMVTVSS
VL: DIQMTQSPSSLSASVGDRITISCRTSQSLRSYLHWYQQKPGKAPKLLIYASSTLQSGVPSRFSGSGSGTDFTLTISNLQPEDFATYYCQLSRTFGQGTKVEIK

For one assay, the target named is recombinant HA subtype H2 (A/Swine/MO/06 (H2N3)) (influenza A virus). In words: ELISA, rHA coated. On the technique in general: In an ELISA, binding on a coated surface is turned into a signal by an enzyme label.
Take B1: the EC50 (commonly the concentration giving half of the maximal effect) was 0.048 mg/L.

On to B2, for which the EC50 amounted to 0.213 mg/L.

As to B3, the EC50 turned out to be 0.058 mg/L.

For B4, the EC50 amounted to 0.075 mg/L.

The target in another assay is recombinant HA subtype H3 (A/Perth/16/09 (H3N2)) (influenza A virus). Description: ELISA, rHA coated.
Take B1: the EC50 amounted to 0.03 mg/L.

Regarding B2, the EC50 came out at 0.064 mg/L.

For B3, the EC50 was 0.067 mg/L.

For B4, the EC50 stood at 0.049 mg/L.

Another assay has as its target recombinant HA subtype H5 (A/Vietnam/1203/04 (H5N1)) (influenza A virus). Description: ELISA, rHA coated.
Turning to B1, the half-maximal effective concentration (EC50) amounted to 0.041 mg/L.

On to B2, for which the concentration for a half-maximal effect (EC50) was 0.256 mg/L.

Take B3: the EC50 stood at 0.044 mg/L.

As for B4, the concentration giving a half-maximal response (EC50) was determined as 0.058 mg/L.

Another assay deals with recombinant HA subtype H6 (A/teal/HK/W312/97 (H6N1)) (influenza A virus). Description: ELISA, rHA coated.
For the molecule B1, the half-maximal effective concentration (EC50) amounted to 0.047 mg/L.

In the case of B2, the EC50 was found to be 0.214 mg/L.

Regarding B3, the EC50 was determined as 0.091 mg/L.

Take B4: the EC50 came out at 0.097 mg/L.

The target of a further assay is recombinant HA subtype H7 (A/Netherlands/219/03 (H7N7)) (influenza A virus). In words: ELISA, rHA coated.
In the case of B1, the EC50 was determined as 0.024 mg/L.

Take B2: the EC50 was 0.116 mg/L.

As to B3, the half-maximal effective concentration (EC50) is 0.015 mg/L.

As for B4, the concentration giving a half-maximal response (EC50) amounted to 0.034 mg/L.

Another assay addresses recombinant HA subtype H9 (A/chicken/HK/G9/97 (H9N2)) (influenza A virus). In words: ELISA, rHA coated.
With B1, the EC50 is over 6 mg/L.

Consider B2, for which the EC50 is over 6 mg/L.

Regarding B3, the half-maximal effective concentration (EC50) is over 6 mg/L.

Consider B4, for which the EC50 was determined as 2.7 mg/L.
